Where a chain is given by its changes, count along the chain named. Values belong to the binder of their own block, whether it stands above or below them.
Biological target: T1, human transferrin receptor (recombinant, for surface plasmon resonance) (human, UniProt P02786 89-760)
T1 construct: also called huTfR; human transferrin receptor-biotinylated
Assay: SPR 25C

T1 sequence (P02786 89-760 limits assumed): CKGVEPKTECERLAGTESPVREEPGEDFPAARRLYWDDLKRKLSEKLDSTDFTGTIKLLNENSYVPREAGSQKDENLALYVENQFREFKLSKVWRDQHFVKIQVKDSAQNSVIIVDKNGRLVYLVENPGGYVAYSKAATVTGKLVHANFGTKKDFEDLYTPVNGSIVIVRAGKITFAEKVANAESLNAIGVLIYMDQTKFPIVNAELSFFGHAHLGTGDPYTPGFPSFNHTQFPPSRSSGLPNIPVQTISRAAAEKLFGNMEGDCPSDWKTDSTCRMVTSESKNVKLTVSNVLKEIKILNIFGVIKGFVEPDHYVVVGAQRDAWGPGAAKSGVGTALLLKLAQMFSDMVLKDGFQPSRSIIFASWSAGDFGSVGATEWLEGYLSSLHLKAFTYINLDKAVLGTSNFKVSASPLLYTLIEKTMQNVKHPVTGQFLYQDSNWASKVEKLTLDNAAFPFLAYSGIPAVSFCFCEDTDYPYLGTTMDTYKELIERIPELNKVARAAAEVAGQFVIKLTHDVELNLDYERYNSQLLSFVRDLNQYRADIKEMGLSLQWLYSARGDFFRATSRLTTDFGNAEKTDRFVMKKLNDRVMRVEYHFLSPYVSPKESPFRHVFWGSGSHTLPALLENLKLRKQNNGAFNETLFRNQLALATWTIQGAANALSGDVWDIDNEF

koff: 0.00244 s⁻¹
B1: 2/99 VH2/VL14 (antibody, V domains shown)
VH: EVQLVETGGGLIQPGGSLRLSCAASGFSLSSYAMSWVRQAPGKGLEWVGYIWSGGSTDYADSVKGRFTISRDNSKNTLYLQMNSLRAEDTAVYYCARRYGTSYPDYGDANGFDPWGQGTLVTVSS
VL: DIVMTQSPDSLAVSLGERATINCKSSQSISSYLSWYQQKPGQRPKLLIYRASTLASGVPDRFSGSGSGTDFTLTISSLQAEDVAVYYCQQSYSSSNVDNTFGGGTKVEIK

koff: 0.00796 s⁻¹
B2: 2/99 VH19/VL14 (antibody, V domains shown)
VH: QSMQESGPGLVKPSQTLSLTCTVSGFSLSSYAMSWIRQHPGKGLEWIGYIWSGGSTDYAPSLKSRVTISVDTSKNQFSLKLSSVTAADTAVYYCARRYGTSYPDYGDANGFDPWGQGTLVTVSS
VL: B1 VL

koff: 0.00105 s⁻¹
B3: 2/99 VH17/VL14 (antibody, V domains shown)
VH: B2 VH with S2Q, M3L, Q15E, I36V, H39P, A59N, V70K, F77V, Q116P
VL: B1 VL

koff: 0.00638 s⁻¹
B4: 2/99 VH2/VL15 (antibody, V domains shown)
VH: B1 VH
VL: B1 VL with S34I, R43P, S91A

koff: 0.003 s⁻¹
B5: 2/99 VH18/VL14 (antibody, V domains shown)
VH: QVQLQESGPGLVKPSQTLSLTCTVSGFSLSSYAMSWIRQHPGKGLEWIGYIWSGGSTDYAPSLKSRVTISVDTSKNQFSLKLSSVTAADTAVYYCARRYGTSYPDYGDANGFDPWGQGTLVTVSS
VL: B1 VL

koff: 0.00239 s⁻¹
B6: 2/99 VH20/VL14 (antibody, V domains shown)
VH: B2 VH with F77V
VL: B1 VL

koff: 0.00103 s⁻¹
B7: 2/99 VH21/VL14 (antibody, V domains shown)
VH: B2 VH with P60S, S61W, L62A, F77V
VL: B1 VL

koff: 0.00175 s⁻¹
B8: 2/99 VH16/VL14 (antibody, V domains shown)
VH: B2 VH with S2Q, M3L, Q15E, I36V, H39P, A59N, F77V, Q116P
VL: B1 VL

koff: 0.00546 s⁻¹
B9: 2/99 VH12/VL14 (antibody, V domains shown)
VH: B5 VH with Q16E, H40P, A60N
VL: B1 VL

koff: 0.00222 s⁻¹
B10: 2/99 VH13/VL14 (antibody, V domains shown)
VH: B5 VH with Q16E, H40P, A60N, F78V
VL: B1 VL

koff: 0.00104 s⁻¹
B11: 2/99 VH8/VL14 (antibody, V domains shown)
VH: QQLVETGGGLIQPGGSLRLSCAASGFSLSSYAMSWVRQAPGKGLEWIGYIWSGGSTDYASWAKGRFTISKTSTTLYLQMNSLRAEDTAVYYCARRYGTSYPDYGDANGFDPWGQGTLVTVSS
VL: B1 VL

koff: 0.00112 s⁻¹
B12: 2/99 VH22/VL14 (antibody, V domains shown)
VH: B2 VH with I36V, P60S, S61W, L62A, F77V
VL: B1 VL

koff: 0.00194 s⁻¹
B13: 2/99 VH15/VL14 (antibody, V domains shown)
VH: B2 VH with S2Q, M3L, Q15E, I36V, H39P, A59N, F77V
VL: B1 VL

koff: 0.000733 s⁻¹
B14: 2/99 VH23-DANG/VL14 (antibody, V domains shown)
VH: QSMQESGPGLVKPSQTLSLTCTVSGFSLSSYAMSWIRQHPGKGLEWIGYIWSGGSTDYASWAKSRVTISKTSTTVSLKLSSVTAADTAVYYCARRYGTSYPDYGDANGFDPWGQGTLVTVSS
VL: B1 VL

koff: 0.001 s⁻¹
B15: 2/99 VH9/VL12 (antibody, V domains shown)
VH: QQLLESGGGLVQPGGSLRLSCAASGFTFSSYAMSWVRQAPGKGLEWVGYIWSGGSTDYADSVKGRFTISRDNSKNTLYLQMNSLRAEDTAVYYCAKRYGTSYPDYGDANGFDPWGQGTLVTVSS
VL: DIQMTQSPSSLSASVGDRVTITCRASQSISSYLAWYQQKPGKAPKLLIYRASTLASGVPSRFSGSRSGTDFTLTISSLQPEDFATYYCQQHYSSSNVDNTFGGGTKVEIK

koff: 0.00785 s⁻¹
B16: 2/99 VH13/VL12 (antibody, V domains shown)
VH: B5 VH with Q16E, H40P, A60N, F78V
VL: B15 VL

koff: 0.00153 s⁻¹
B17: 2/99 VH7/VL14 (antibody, V domains shown)
VH: B15 VH with L4V, S6T, V11I, T27S, F28L, V47I, D60S, S61W, V62A, K96R
VL: B1 VL

koff: 0.001 s⁻¹
B18: 2/99 VH20/VL12 (antibody, V domains shown)
VH: B2 VH with F77V
VL: B15 VL

koff: 0.001 s⁻¹
B19: 2/99 VH18/VL12 (antibody, V domains shown)
VH: B5 VH
VL: B15 VL

koff: 0.00754 s⁻¹
B20: 2/99 VH21/VL12 (antibody, V domains shown)
VH: B2 VH with P60S, S61W, L62A, F77V
VL: B15 VL

koff: 0.00273 s⁻¹
B21: 2/99 VH7/VL15 (antibody, V domains shown)
VH: B15 VH with L4V, S6T, V11I, T27S, F28L, V47I, D60S, S61W, V62A, K96R
VL: B1 VL with S34I, R43P, S91A

koff: 0.00233 s⁻¹
B22: 2/99 VH5/VL14 (antibody, V domains shown)
VH: B15 VH with Q2S, L3M, L4E, S6T, V11I, T27S, F28L, K96R, Q116P
VL: B1 VL

koff: 0.001 s⁻¹
B23: 2/99 VH19/VL12 (antibody, V domains shown)
VH: B2 VH
VL: B15 VL

koff: 0.00644 s⁻¹
B24: 2/99 VH22/VL12 (antibody, V domains shown)
VH: B2 VH with I36V, P60S, S61W, L62A, F77V
VL: B15 VL

koff: 0.00332 s⁻¹
B25: 2/99 VH9/VL14 (antibody, V domains shown)
VH: B15 VH
VL: B1 VL

koff: 0.00299 s⁻¹
B26: 2/99 VH1/VL14 (antibody, V domains shown)
VH: B15 VH with Q1V, L4V, S6T, V11I, T27S, F28L, K96R
VL: B1 VL

koff: 0.001 s⁻¹
B27: 2/99 VH12/VL12 (antibody, V domains shown)
VH: B5 VH with Q16E, H40P, A60N
VL: B15 VL

koff: 0.00284 s⁻¹
B28: 2/99 VH17/VL12 (antibody, V domains shown)
VH: B2 VH with S2Q, M3L, Q15E, I36V, H39P, A59N, V70K, F77V, Q116P
VL: B15 VL

koff: 0.00637 s⁻¹
B29: 2/99 VH5/VL15 (antibody, V domains shown)
VH: B15 VH with Q2S, L3M, L4E, S6T, V11I, T27S, F28L, K96R, Q116P
VL: B1 VL with S34I, R43P, S91A

koff: 0.0022 s⁻¹
B30: 2/99 VH6/VL14 (antibody, V domains shown)
VH: B15 VH with L4V, S6T, V11I, T27S, F28L, V47I, K96R
VL: B1 VL

koff: 0.00754 s⁻¹
B31: 2/99 VH16/VL12 (antibody, V domains shown)
VH: B2 VH with S2Q, M3L, Q15E, I36V, H39P, A59N, F77V, Q116P
VL: B15 VL

koff: 0.00787 s⁻¹
B32: 2/99 VH11/VL12 (antibody, V domains shown)
VH: B15 VH with T27S, F28L, K96R
VL: B15 VL

koff: 0.00669 s⁻¹
B33: 2/99 VH1/VL15 (antibody, V domains shown)
VH: B15 VH with Q1V, L4V, S6T, V11I, T27S, F28L, K96R
VL: B1 VL with S34I, R43P, S91A

koff: 0.00351 s⁻¹
B34: 2/99 VH11/VL14 (antibody, V domains shown)
VH: B15 VH with T27S, F28L, K96R
VL: B1 VL

koff: 0.00764 s⁻¹
B35: 2/99 VH15/VL12 (antibody, V domains shown)
VH: B2 VH with S2Q, M3L, Q15E, I36V, H39P, A59N, F77V
VL: B15 VL

koff: 0.00421 s⁻¹
B36: 2/99 VH6/VL15 (antibody, V domains shown)
VH: B15 VH with L4V, S6T, V11I, T27S, F28L, V47I, K96R
VL: B1 VL with S34I, R43P, S91A
